In patent US20170247475A1 (Boehringer Ingelheim, published 2017):
Residue numbers refer to the chain shown, from its start.

Biological target: T1, recombinant human VEGF165 (human, UniProt P15692-4 27-191)
T1 construct: also called hVEGF165; rhVEGF165
Assay: ELISA screen, periplasmic extract on coated hVEGF165
Source text: Wells are blocked with a casein solution (1%). After addition of typically a 10-fold dilution of the periplasmic extracts, VHH binding is detected using a mouse anti-myc (Roche) and an anti-mouse-HRP conjugate (DAKO). Clones showing ELISA signals of >3-fold above background are considered as VEGF binding VHHs.

T1 sequence (P15692 other isoform, or with tags, fused parts or gaps limits assumed): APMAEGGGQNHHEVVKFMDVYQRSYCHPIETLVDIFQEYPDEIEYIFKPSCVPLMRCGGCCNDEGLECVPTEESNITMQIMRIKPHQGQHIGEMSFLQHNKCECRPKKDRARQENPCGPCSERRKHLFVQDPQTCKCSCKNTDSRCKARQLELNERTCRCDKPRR

B1: VEGFBII04B08 (VHH)
VHH: EVQLVESGGGLVQPGGSLRLSCAASGSAVGDITVAWYRQAPGIQRQLVATITPSGYTYYWDFVKGRFTISRDNSKNIVYLQMNSLKPEDTAAYYCNTQFYWGQGTQVTVSS
B1: binds.

B2: VEGFBII11G09 (VHH)
VHH: EVQLVESGGGLVQAGGSLRLSCAASTSIYSITVMAWFRQAPGKEREFVAAITWSAPTTYSADSVKGRFTISRDNAKNTVYLQMNSLKPEDSAIYYCAADRFKGRSIVTRSDYRYWGQGTQVTVSS
B2: binds.

B3: VEGFBII07A03 (VHH)
VHH: B2 VHH with R45S, T57S, T58S, S60Y, R113K
B3: binds.

B4: VEGFBII07A06 (VHH)
VHH: B2 VHH with A24V, T32S, E46A, S60Y, M83T
B4: binds.

B5: VEGFBII11F10 (VHH)
VHH: B2 VHH with T57S, T58S, S60Y, M83V
B5: binds.

B6: VEGFBII08E07 (VHH)
VHH: EVQLVESGGGLAQAGGSLRLSCTTSGLTFSSYYMGWFRQAPGKEREFVATISWNKISTIYTDSVKGRFTVSRDNNKNTVYLQMNSLKPEDTAVYYCAADASRPTLRIPQYWGQGTQVTVSS
B6: binds.

B7: VEGFBII08E06 (VHH)
VHH: EVQLVESGGGLVQPGGSLRLSCAASGSIVRSDVMGWYRQAPGKQRELVAFIRSLGSTYYAGSVKGRFTISRDDAANTVYLQMNNLKPEDTAVYYCNARFSGESYWGQGTPVTVSS
B7: binds.

B8: VEGFBII12C04 (VHH)
VHH: B7 VHH with D73N
B8: binds.

B9: VEGFBII08F07 (VHH)
VHH: EVQLVESGGGLVQAGGSLRLSCAVSGSTFGLYAMGWFRQAPGREREFLSAITWSAGDTQYADSVKGRFTISRDNARNTVNLQMNGLKPEDTAVYYCAGRQWGGTYYYHGSYAYWGQGTQVTVSS
B9: binds.

B10: VEGFBII12G04 (VHH)
VHH: B9 VHH with A14S, G16D, S27N, L48V, Y113W
B10: binds.

B11: VEGFBII09A09 (VHH)
VHH: EVQLVESGGGLVQPGGSLRLSCVASGIRFMSMAWYRQAPGKHRELVARISSEGTTAYVDSVKGRFTISRDNSKNTVYLQMNSLKAEDTAVYYCNTFSSRPNPWGAGTTVTVSS
B11: binds.

B12: VEGFBII09F05 (VHH)
VHH: EVQLVESGGGLVQAGGSLRLSCAASGRTFSTDDVGWFRQAPGKEREFVAVIRWSTGGTYTSDSVKGRFTLSRDNAKNTMYLQMNSLKPEDTAVYYCAARSRPLGAGAWYTGETRYNYWGQGTQVTVSS
B12: binds.

B13: VEGFBII09A12 (VHH)
VHH: B12 VHH with K65A, N116D, Y117S
B13: binds.

B14: VEGFBII16C03 (VHH)
VHH: B12 VHH with G8E, T113N, R114Y
B14: binds.

B15: VEGFBII09D05 (VHH)
VHH: EVQLVESGGGLVQPGDSLRLSCAASGLSFSRYGMGWFRQAPGKEREFVIAISEYDNVYTADSVRGRFTISRDNSKSTVYLQMNSLKSEDTAVYYCAASPTILLSTDEWYKYWGRGTQVTVSS
B15: binds.

B16: VEGFBII11C11 (VHH)
VHH: EVQLVESGGGLVQAGGSLMLSCAASGRALSSYAIGWFRQAPGREREFVARISWSGANTYYADSVKGRFTISRGNAKNTVYLQMNSLKPEDTAAYYCAAQTTSKYDNYDARAYGYWGQGTQVTVSS
B16: binds.

B17: VEGFBII12A07 (VHH)
VHH: EVQLVESGGGLVQAGGSLRLSCSVTGRTFNKYVMGWFRQAPGNDREFVAAITSRDGPTYYADSVKGRFTISGDNTKNKIFLQMNSLMPEDTAVYYCAIDEDLYHYSSYHFTRVDLYHYWGQGTQVTVSS
B17: binds.

B18: VEGFBII12B01 (VHH)
VHH: EVQLVESGGGLVQPGGSLRLACAASGFTLSSSWMYWVRQAPGKGLEWVSRISPGGLFTYYVDSVKGRFSVSTDNANNTLYLQMNSLKPEDTALYSCAKGGAPNYTPRGRGTQVTVSS
B18: binds.

B19: VEGFBII12E10 (VHH)
VHH: EVQLVESGGGLAQAGGSLRLSCTASGRTFNNYVMGWFRQAPGNEREFVAAITSTNGPTYYADSVKGRFTISGDNTKNKVFLQMDSLRPEDTAVYYCAIDEDLYHYSSYHYTRVALYHYWGQGTQVTVSS
B19: binds.

B20: VEGFBII16F11 (VHH)
VHH: EVQLVESGGGLVQAGGSLRLSCAASGRTSSGYDMGWFRQAPGKEREFVTAITWSGGSTYSPDSVKGRFTISRDNAKNTVYLQMNNLTPEDTAVYYCASGRIWRSRDYDSEKYYDIWGHGTQVTVSS
B20: binds.

B21: VEGFBII39H11 (VHH)
VHH: EVQLVESGGGLVQAGGSLRLSCAASGRTFSAYDMGWFRQAPGKEREFVAVISWTGGMTYYADSVKGRFTISRDKAKNTVSLQMNSLKPEDTAVYYCAVDRRRTYSRWRYYTGVNEYEYWGQGTQVTVSS
B21: binds.

B22: VEGFBII36C08 (VHH)
VHH: B21 VHH with G55N, G56S, K74N, S80Y, Y109F, E115D, E117D
B22: binds.

B23: VEGFBII37F09 (VHH)
VHH: B21 VHH with A14T, T54S, K65Q, K74N, N77S, S80Y, L86P, T103A, E115D, Y118F
B23: binds.

B24: VEGFBII38A06 (VHH)
VHH: B21 VHH with T54S, K74N, S80Y, T103L, E115D, E117D
B24: binds.

B25: VEGFBII41B06 (VHH)
VHH: B21 VHH with G56D, V98A
B25: binds.

B26: VEGFBII41D11 (VHH)
VHH: B21 VHH with V5M
B26: binds.

B27: VEGFBII42F10 (VHH)
VHH: B21 VHH with T54S, Y59D, D73E, K74N, V79Q, S80F, D99G, T103A, E117D
B27: binds.

B28: VEGFBII86C11 (VHH)
VHH: EVQLVESGGGLVQAGDSLRLSCTASGRTFNSYAMGWFRQAPGKERESVAHINRSGSSTYYADSVKGRFTISRDNAKNTVYLQLNSLKPEDTAVYYCAAGRYYSSDGVPSASFNYWGQGTQVTVSS
B28: binds.

B29: VEGFBII86F11 (VHH)
VHH: EVQLVESGGGLVQAGDSLRLSCFTSARTFDTWAMAWFRQAPGKEREFISAISWSGSMTYYTDSVKGRFIISRDNAQNTLFLQMNNTAPEDTAVYYCAAKTVDYCSAYECYARLEYDYWGRGAQVTVSS
B29: binds.

B30: VEGFBII86G08 (VHH)
VHH: EVQLVESGGGLMQTGDSLRLSCAASGLRFTSTNMGWFRQGPGKEREFVAAITLSGTTYYAEAVKGRFTISRDNDKNTVALQMNSLKPEDTAVYYCGADPSYYSTSRYTKATEYDYWGQGTQVTVSS
B30: binds.

B31: VEGFBII86G10 (VHH)
VHH: EVQLVESGGGLVQAGGSLRLSCAASGRTFNTYTMGWFRQTPGTEREFVAAIRWTVNITYYADSVKGRFTISRDIVKNTVYLQMNSLKPEDTAVYYCAAQTSAPRSLIRMSNEYPYWGQGTQVTVSS
B31: binds.

B32: VEGFBII86G11 (VHH)
VHH: EVQLVESGGGLVQAGGSLRLSCAASGLTFSLYTVGWFRQAPGKEREFVAYISRSGSNRYYVDSVKGRFTLSRDNAKNTVDLQMNSLKTEDTAVYYCAATSRGLSSLAGEYNYWGRGTQVTVSS
B32: binds.

B33: VEGFBII87B07 (VHH)
VHH: EVQLVESGGGLVQPGGSLKLSCTASGFTFSTSWMHWVRQAPGKGLEWVSSIPPVGHFANYAPSVKGRFTISRDNAKNTLFLQMNSLKSEDTAVYYCAKDSAGRTKGQGTQVTVSS
B33: binds.

B34: VEGFBII88A01 (VHH)
VHH: KVQLVESGGGLVQAGGSLRLSCAASERTFSNYAMDWFRQAPGKEREFVAAITRSGGGTYYADSVKGRFTISRDNAKNTVYLQMNSLKPEDTAVYYCAATRSSTIVVGVGGMEYWGKGTLVTVSS
B34: binds.

B35: VEGFBII88A02 (VHH)
VHH: EVQLVESGGGLVQAGGSLRLSCAASGFTFGDYDIGWFRQAPGNEREGVSCITTDVGTTYYADSVKGRFTISSDNAKNTVYLQINDLKPEDTAIYYCAVDTQDLGLDIFCRGNGPFDGWGQGTQVTVSS
B35: binds.

B36: VEGFBII88B02 (VHH)
VHH: EVQLVESGGGLVQPGGSLRLSCTASGLNLDDYAIGWFRQAPGKEREGVSCISSYDSVTYYADHVKGRFTISRDSAKNTLYLQMNSLSIEDTGVYYCAAEREQLRRRESPHDELLRLCFYGMRYSGKGTLVTVSS
B36: binds.

B37: VEGFBII88E02 (VHH)
VHH: EVQLVESGGGLVQPGGSLRLSCVASGFRLDDYAIGWFRQAPGKEREAVSCISSSDTSIDYTNSVKGRFTFSRDNAKNTVYLQMNSLKPEDTAVYYCAAAFRCSGYELRGFPTWGQGTQVTVSS
B37: binds.
